Assay results taken from article PMC4552014, “High Affinity Binders to EphA2 Isolated from Abdurin Scaffold Libraries; Characterization, Binding and Tumor Targeting” (PLoS ONE, 2015).
Positions count from the first letter of the chain named.

B1: Abdurin B11, affinity matured EphA2 binder (designed binder)
chain: GPSVFLFPPKPKDTLMISRTPEVTCVVVDYRADYLEVKFNWYVDGVEVHNAKTKPRQYDPLYGYRVVSVLTVLHQDWLNGKEYKCKVSNKALPAPIEKTISKAK
notes: Abdurin scaffold (human IgG1 CH2 domain), stretch before loop BC; loop BC of matured clone B11, in place of Val266-Pro271 (VSHEDP) of the scaffold; Abdurin scaffold (human IgG1 CH2 domain), stretch between loops BC and DE; loop DE from the parental clone E10, in place of Glu293-Thr299 (EEQYNST); Abdurin scaffold (human IgG1 CH2 domain), stretch after loop DE; Not the phage loop DE clone of the …
B2: Abdurin D2, affinity matured EphA2 binder (designed binder)
chain: B1 chain with R31E, D33A, Y34A
notes: Abdurin scaffold (human IgG1 CH2 domain), stretch before loop BC; loop BC of matured clone D2, in place of Val266-Pro271 (VSHEDP) of the scaffold; Abdurin scaffold (human IgG1 CH2 domain), stretch between loops BC and DE; loop DE from the parental clone E10, in place of Glu293-Thr299 (EEQYNST); Abdurin scaffold (human IgG1 CH2 domain), stretch after loop DE; Not the phage loop DE clone of the …
B3: Abdurin B6, affinity matured EphA2 binder (designed binder)
chain: B1 chain with Y30P, R31Y, A32L, D33H, Y34D, L35D
notes: Abdurin scaffold (human IgG1 CH2 domain), stretch before loop BC; loop BC of matured clone B6, in place of Val266-Pro271 (VSHEDP) of the scaffold; Abdurin scaffold (human IgG1 CH2 domain), stretch between loops BC and DE; loop DE from the parental clone E10, in place of Glu293-Thr299 (EEQYNST); Abdurin scaffold (human IgG1 CH2 domain), stretch after loop DE; source: E. coli Shuffle cells, …
B4: Abdurin H6, purified loop DE binder (designed binder)
chain: B1 chain with Y30V, R31S, A32H, D33E, Y34D, L35P, Q57R, Y58V, Y62G
notes: Abdurin scaffold (human IgG1 CH2 domain), stretch before loop DE; loop DE of clone H6, in place of Glu293-Thr299 (EEQYNST) of the scaffold; Abdurin scaffold (human IgG1 CH2 domain), stretch after loop DE
B5: Abdurin G7, affinity matured EphA2 binder (designed binder)
chain: B1 chain with Y30P, R31H, A32L, D33G, Y34V, L35D
notes: Abdurin scaffold (human IgG1 CH2 domain), stretch before loop BC; loop BC of matured clone G7, in place of Val266-Pro271 (VSHEDP) of the scaffold; Abdurin scaffold (human IgG1 CH2 domain), stretch between loops BC and DE; loop DE from the parental clone E10, in place of Glu293-Thr299 (EEQYNST); Abdurin scaffold (human IgG1 CH2 domain), stretch after loop DE; source: E. coli Shuffle cells, …

What was measured:
human FcRn (human) = human FcRn (human) (UniProt P55899); assay: SPR; Biacore 3000, on hFcRn; who was immobilised and the conditions not given
[1] = target: T1, murine EphA2-Fc fusion protein (mouse, UniProt Q03145 26-538); assay: ELISA; end-point titration ELISA in 96-well plates coated with hEphA2-Fc or mEphA2-Fc; purified Abdurins titrated; detected by anti-FLAG M2-HRP; the constant is printed as 'Affinity (M)'; settings: both partners purified
T1 construct: ephrin receptor tyrosine kinase class A2 (EphA2), mouse, extracellular domain as Fc chimera; Biotinylated in-house (EZ-Link Sulfo-NHS-LC-Biotin) for the CIS display selections and the screening ELISA; also called mEphA2-Fc; mEphA2; source: bought: R&D Systems
T1 sequence (Q03145 26-538): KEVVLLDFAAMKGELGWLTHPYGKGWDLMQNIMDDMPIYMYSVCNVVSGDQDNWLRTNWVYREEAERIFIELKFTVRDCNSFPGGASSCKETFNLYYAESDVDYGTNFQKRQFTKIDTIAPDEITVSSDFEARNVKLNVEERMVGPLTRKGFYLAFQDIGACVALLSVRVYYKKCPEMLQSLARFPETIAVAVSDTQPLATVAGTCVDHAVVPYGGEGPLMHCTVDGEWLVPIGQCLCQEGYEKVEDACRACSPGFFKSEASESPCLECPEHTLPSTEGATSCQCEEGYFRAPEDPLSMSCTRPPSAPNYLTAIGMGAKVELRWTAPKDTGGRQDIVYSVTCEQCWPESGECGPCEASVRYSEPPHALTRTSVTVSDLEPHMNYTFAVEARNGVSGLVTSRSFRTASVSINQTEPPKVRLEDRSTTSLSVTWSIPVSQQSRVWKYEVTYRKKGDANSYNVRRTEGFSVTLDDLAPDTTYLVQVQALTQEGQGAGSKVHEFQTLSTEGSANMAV

hEphA2-Fc = target: T2, hEphA2-Fc (human, UniProt P29317 24-537); assay: as above; settings: both partners purified
T2 construct: EphA2, human, as Fc fusion coated on 96-well plates; Probably the extracellular domain; also called huEphA2
T2 sequence (P29317 24-537): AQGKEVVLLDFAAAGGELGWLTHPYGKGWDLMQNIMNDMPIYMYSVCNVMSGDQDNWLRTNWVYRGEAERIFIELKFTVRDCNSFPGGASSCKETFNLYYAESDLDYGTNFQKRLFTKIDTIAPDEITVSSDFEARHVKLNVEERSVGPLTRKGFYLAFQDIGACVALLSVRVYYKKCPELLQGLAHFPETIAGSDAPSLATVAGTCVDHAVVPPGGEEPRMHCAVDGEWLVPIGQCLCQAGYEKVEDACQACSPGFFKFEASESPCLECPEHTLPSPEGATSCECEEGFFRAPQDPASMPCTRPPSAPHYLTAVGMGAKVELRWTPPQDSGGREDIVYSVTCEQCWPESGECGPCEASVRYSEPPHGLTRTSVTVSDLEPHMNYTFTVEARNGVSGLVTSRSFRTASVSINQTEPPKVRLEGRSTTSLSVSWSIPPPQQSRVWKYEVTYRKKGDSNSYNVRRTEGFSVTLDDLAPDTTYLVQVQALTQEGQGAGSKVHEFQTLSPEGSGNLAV

[2] = target: human EphA2 recombinant protein (human, UniProt P29317 24-976, Construct limits are not given; the soluble recombinant receptor is taken as the mature extracellular domain from the UniProt features. The Fig 3 legend names an Fc fusion (hEphA2-Fc), and the Fc is); assay: SPR; Biacore 3000; hEphA2 immobilised on CM5 chip by amine coupling (500 RU); Abdurins as analyte, multi-cycle kinetics in HBS-P (50 mM Hepes pH 7.4, 150 mM NaCl, 0.005% P-20), 40 μl/minute; 1:1 binding model; repeated three times; settings: both partners purified
Sequence of human EphA2 recombinant protein (P29317 24-976): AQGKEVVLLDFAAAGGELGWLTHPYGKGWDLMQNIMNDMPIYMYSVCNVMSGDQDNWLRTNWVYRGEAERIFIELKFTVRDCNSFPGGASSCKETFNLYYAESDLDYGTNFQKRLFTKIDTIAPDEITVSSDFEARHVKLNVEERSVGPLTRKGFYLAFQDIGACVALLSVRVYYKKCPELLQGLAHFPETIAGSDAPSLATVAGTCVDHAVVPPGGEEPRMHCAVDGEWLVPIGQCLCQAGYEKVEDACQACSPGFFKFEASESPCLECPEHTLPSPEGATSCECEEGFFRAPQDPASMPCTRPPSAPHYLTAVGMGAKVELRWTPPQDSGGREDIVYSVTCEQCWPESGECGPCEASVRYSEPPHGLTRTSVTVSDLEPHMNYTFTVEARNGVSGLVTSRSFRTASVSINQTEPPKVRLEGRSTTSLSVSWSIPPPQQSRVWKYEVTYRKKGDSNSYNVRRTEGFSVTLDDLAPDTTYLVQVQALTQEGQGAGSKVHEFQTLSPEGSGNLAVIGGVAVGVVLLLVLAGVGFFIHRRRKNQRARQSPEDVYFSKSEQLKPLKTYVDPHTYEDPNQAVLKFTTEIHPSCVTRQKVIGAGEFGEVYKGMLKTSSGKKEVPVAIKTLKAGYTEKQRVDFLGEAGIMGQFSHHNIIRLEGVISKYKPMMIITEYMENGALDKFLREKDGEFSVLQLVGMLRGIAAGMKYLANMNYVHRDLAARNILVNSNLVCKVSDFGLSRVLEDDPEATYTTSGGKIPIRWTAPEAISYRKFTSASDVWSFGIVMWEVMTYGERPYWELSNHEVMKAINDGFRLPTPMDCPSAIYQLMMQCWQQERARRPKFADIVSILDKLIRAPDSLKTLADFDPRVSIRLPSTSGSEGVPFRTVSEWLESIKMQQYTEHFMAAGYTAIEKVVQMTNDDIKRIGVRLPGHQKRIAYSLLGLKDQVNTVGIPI

[3] = target: T3, hEphA2 on CHOK1-EphA2 cells (human, UniProt P29317 24-976); assay: flow cytometry on cells; Abdurins at 1nM to 7μM incubated with CHOK1-EphA2 cells; detected with mouse anti-HisTag-FITC; the constant is printed as 'Affinity (M)'; settings: one partner purified
T3 construct: EphA2, human, transfection-ready hEphA2 cDNA (OriGene Technologies); also called cell-surface expressed hEphA2; source: CHOK1 cells transfected with hEphA2 cDNA (OriGene Technologies), single cell clone, on cells
T3 sequence (P29317 24-976): as above

[4] = target: T1, murine EphA2-Fc fusion protein; assay: SPR; Biacore 3000, on mEphA2; purified Abdurins from E. coli; immobilisation for mEphA2 not described; settings: both partners purified

Molecule | Kd (human FcRn (human)) | koff (human FcRn (human)) | kon (human FcRn (human)) | Kd [1] | Kd (hEphA2-Fc) | koff [2] | kon [2] | Kd [3] | Kd [4] | koff [4] | kon [4]
shWTCH2 (version of the wild-type CH2 domain that has the N-terminal seven amino acids truncated) (domain or fragment) | 25 nM | 0.017 s⁻¹ | 1.5e+06 M⁻¹ s⁻¹ |  |  |  |  |  |  |  | 
B1 | 26 nM | 0.013 s⁻¹ | 1.1e+06 M⁻¹ s⁻¹ | 9.89 nM | 4.43 nM | 0.0158 s⁻¹ | 1.21e+06 M⁻¹ s⁻¹ | 403 nM |  |  | 
B2 |  |  |  | 1.97 nM | 2.55 nM |  |  | 1310 nM |  |  | 
B3 | 38 nM | 0.011 s⁻¹ | 1.1e+06 M⁻¹ s⁻¹ | 3.5 nM | 6.54 nM | 0.0496 s⁻¹ | 716000 M⁻¹ s⁻¹ | 151 nM |  |  | 
B4 |  |  |  |  |  |  |  |  | 873 nM | 0.008 s⁻¹ | 9610 M⁻¹ s⁻¹
B5 |  |  |  | 3.18 nM | 8.06 nM | 0.0375 s⁻¹ | 1.8e+06 M⁻¹ s⁻¹ | 333 nM |  |  | 
